In article PMC8313009:

Experiments:
Complement C3b (human) [1] = target: Complement C3b (human) (UniProt P01024); assay: ELISA; competition; heparin-binding plates coated with 25 ug/ml human C3b alone; FH fixed at 16 nM with rFHR-5 at 7-221 nM (dimer), 2 h room temperature, 5% BSA, 100 mM NaCl, 50 mM NaOAc, pH 7.3; bound FH detected with monoclonal anti-FH; FH binding without rFHR-5 = 100%
Complement C3b (human) [2] = target: Complement C3b (human) (UniProt P01024); assay: ELISA; competition; heparin-binding plates coated with 25 ug/ml human C3b together with 40 ug/ml kidney heparan sulfate; FH fixed at 16 nM with rFHR-5 at 7-221 nM (dimer), 2 h room temperature, 5% BSA, 100 mM NaCl, 50 mM NaOAc, pH 7.3; bound FH detected with monoclonal anti-FH; FH binding without rFHR-5 = 100%

- percent of FH binding to surface C3b left at a 1:1 molar ratio of rFHR-5 and FH (Complement C3b (human) [1]): 80%
- percent of FH binding to surface C3b with kidney HS left at a 1:1 molar ratio of rFHR-5 and FH (Complement C3b (human) [2]): 50%
B1: Recombinant complement factor H-related protein 5 (natural protein)
chain: EGTLCDFPKIHHGFLYDEEDYNPFSQVPTGEVFYYSCEYNFVSPSKSFWTRITCTEEGWSPTPKCLRMCSFPFVKNGHSESSGLIHLEGDTVQIICNTGYSLQNNEKNISCVERGWSTPPICSFTKGECHVPILEANVDAQPKKESYKVGDVLKFSCRKNLIRVGSDSVQCYQFGWSPNFPTCKGQVRSCGPPPQLSNGEVKEIRKEEYGHNEVVEYDCNPNFIINGPKKIQCVDGEWTTLPTCVEQVKTCGYIPELEYGYVQPSVPPYQHGVSVEVNCRNEYAMIGNNMITCINGIWTELPMCVATHQLKRCKIAGVNIKTLLKLSGKEFNHNSRIRYRCSDIFRYRHSVCINGKWNPEVDCTEKREQFCPPPPQIPNAQNMTTTVNYQDGEKVAVLCKENYLLPEAKEIVCKDGRWQSLPRCVESTAYCGPPPSINNGDTTSFPLSVYPPGSTVTYRCQSFYKLQGSVTVTCRNKQWSEPPRCLDPCVVSEENMNKNNIQLKWRNDGKLYAKTGDAVEFQCKFPHKAMISSPPFRAICQEGKFEYPICE
